Data taken from US20160237160A1, “ANTI-TWEAKR ANTIBODIES AND USES THEREOF” (BAYER PHARMA AKTIENGESELLSCHAFT, priority 2013, published 2016).

Legend:
[1] = target: T1, TWEAKR-Fc fusion protein (TPP-2202), aa 28-80 (Homo sapiens, UniProt Q9NP84); test: ELISA with TWEAKR full ectodomain; format: binding; conditions: coating 1 μg/ml; 0.08 and 0.3 μg/ml biotinylated IgG
T1 construct: the full ectodomain 28-80 including the N- and C-terminus; made in house
Description: (§1) In a first approach to characterize the binding epitope of the aforementioned antibodies, a N- and C-terminal truncation mutant of the TWEAKR ectodomain was generated and tested for its ability to bind to the different anti-TWEAKR antibodies. N-terminally, amino acids 28 to 33 and C-terminally amino acids 69 to 80 were deleted, thus the cysteine rich domain with disulfide bridges between Cys36-Cys49, Cys52-Cys67 and Cys55-Cys64 remains intact (compare FIG. 2). Both constructs, the full ectodomain 28-80 including the N- and C-terminus and the truncated ectodomain 34-68 were expressed and purified as Fc fusion proteins TPP-2202 and TPP-2203, respectively.
(§2) To analyze for binding, 1 μg/ml of the respective dimeric TWEAKR-Fc construct were coated and, 0.3 μg/ml and 0.08 μg/ml of biotinylated IgG were used as soluble binding partner. Detection was done with Streptavidin-HRP and Amplex-Red substrate. IgGs were biotinylated using an approximately 2-fold molar excess of biotin-LC-NHS (Pierce; Cat. No. 21347) according to manufacturer's instructions and desalted using Zeba desalting columns (Pierce; Cat. No. 89889).

[2] = target: T2, TWEAKR protein (TPP-2305) (Homo sapiens, UniProt Q9NP84); test: Biacore monovalent KD with TWEAKR protein; format: binding; conditions: first order 1:1 binding model
T2 construct: TPP-2305; hTNFRSF12Aaa28-80; Human; 30R-AT080; 168; purchased Fitzgerald Inc 30R-AT080
Description: Binding affinities of anti-TWEAKR antibodies were determined by surface plasmon resonance analysis on a Biacore T100 instrument (GE Healthcare Biacore, Inc.). Antibodies were immobilized onto a CM5 sensor chip through an indirect capturing reagent, anti-human IgG(Fc). Reagents from the “Human Antibody Capture Kit” (BR-1008-39, GE Healthcare Biacore, Inc.) were used as described by the manufacturer. Anti-TWEAKR antibodies were injected at a concentration of 10 μg/ml at 10 μl/min for 10 sec.
Sensorgrams were generated after in-line reference cell correction followed by buffer sample subtraction. The dissociation equilibrium constant (KD) was calculated based on the ratio of association (kon) and dissociation rated (koff) constants, obtained by fitting sensorgrams with a first order 1:1 binding model.

[3] = target: T3, TWEAKR(28-68)-HIS (TPP-1984) (Homo sapiens, UniProt Q9NP84); test: ELISA with C-terminally truncated TWEAKR ectodomain; format: binding; conditions: coating 1 μg/ml; 0.08 and 0.3 μg/ml biotinylated IgG
T3 construct: Extracellular domain with C-terminal truncation (28-68) fused to HIS6 tag; made in house
Description: as §2

[4] = target: T4, TWEAKR(34-68)-Fc fusion protein (TPP-2203) (Homo sapiens, UniProt Q9NP84); test: ELISA with TWEAKR cysteine rich domain; format: binding; conditions: coating 1 μg/ml; 0.08 and 0.3 μg/ml biotinylated IgG
T4 construct: the truncated ectodomain 34-68 were expressed and purified as Fc fusion proteins; made in house
Description: as §1, §2

[5] = target: T5, TWEAKR-Fc mutein L65Q (TPP-1990) (Homo sapiens, UniProt Q9NP84, L65Q); test: ELISA mutein binding; conditions: coating 62 ng/ml; biotinylated IgG from 100 nM; read-out: IC50 of antibody binding, L65Q
T5 construct: the full ectodomain (amino acids 28-80) with the following single amino acid substitutions; made in house
Description: (§3) Therefore, the full ectodomain (amino acids 28-80) with the following single amino acid substitutions were expressed and purified as Fc fusion proteins: T33Q; S40R; W42A; M50A; R56P; H60K; L65Q.
(§4) To collect dose-response data, the different TWEAKR-Fc muteins were coated with a low concentration (62 ng/ml) in a 384-well Maxisorb ELISA plate and a serial 2fold dilution of biotinylated IgG starting with a concentration of 100 nM was used as soluble binding partner. Detection was done with Streptavidin-HRP and Amplex Red.
(§5) IgGs were biotinylated using an approximately 2-fold molar excess of biotin-LC-NHS (Pierce; Cat. No. 21347) according to manufacturer's instructions and desalted using Zeba desalting columns (Pierce; Cat. No. 89889). The dose-response data were fitted and IC50s determined.

[6] = target: T6, TWEAKR-Fc mutein H60K (TPP-1989) (Homo sapiens, UniProt Q9NP84, H60K); test: ELISA mutein binding; conditions: coating 62 ng/ml; biotinylated IgG from 100 nM; read-out: IC50 of antibody binding, H60K
T6 construct: the full ectodomain (amino acids 28-80) with the following single amino acid substitutions; made in house
Description: as §3, §4, §5

[7] = target: T7, TWEAKR-Fc mutein M50A (TPP-1988) (Homo sapiens, UniProt Q9NP84, M50A); test: ELISA mutein binding; conditions: coating 62 ng/ml; biotinylated IgG from 100 nM; read-out: IC50 of antibody binding, M50A
T7 construct: the full ectodomain (amino acids 28-80) with the following single amino acid substitutions; made in house
Description: as §3, §4, §5

TWEAKR-Fc WT (TPP-599) = target: T8, TWEAKR-Fc WT (TPP-599) (Homo sapiens, UniProt Q9NP84); test: ELISA mutein binding; conditions: coating 62 ng/ml; biotinylated IgG from 100 nM; read-out: IC50 of antibody binding, WT
T8 construct: TPP-599; HUMAN-TNFRSF12Aaa28-80-hIgG1-Fc; 138; made in house
Description: as §3, §4, §5

[8] = target: T9, TWEAKR-Fc mutein T33Q (TPP-1986) (Homo sapiens, UniProt Q9NP84, T33Q); test: ELISA mutein binding; conditions: coating 62 ng/ml; biotinylated IgG from 100 nM; read-out: IC50 of antibody binding, T33Q
T9 construct: the full ectodomain (amino acids 28-80) with the following single amino acid substitutions; made in house
Description: as §3, §4, §5

[9] = target: T10, TWEAKR-Fc mutein W42A (TPP-1985) (Homo sapiens, UniProt Q9NP84, W42A); test: ELISA mutein binding; conditions: coating 62 ng/ml; biotinylated IgG from 100 nM; read-out: IC50 of antibody binding, W42A
T10 construct: the full ectodomain (amino acids 28-80) with the following single amino acid substitutions; made in house
Description: as §3, §4, §5

[10] = target: T11, TWEAKR-Fc mutein R56P (TPP-2683) (Homo sapiens, UniProt Q9NP84, R56P); test: ELISA mutein binding; conditions: coating 62 ng/ml; biotinylated IgG from 100 nM; read-out: IC50 of antibody binding, R56P
T11 construct: the full ectodomain (amino acids 28-80) with the following single amino acid substitutions; made in house
Description: as §3, §4, §5

[11] = target: T12, TWEAKR-Fc mutein S40R (TPP-1987) (Homo sapiens, UniProt Q9NP84, S40R); test: ELISA mutein binding; conditions: coating 62 ng/ml; biotinylated IgG from 100 nM; read-out: IC50 of antibody binding, S40R
T12 construct: the full ectodomain (amino acids 28-80) with the following single amino acid substitutions; made in house
Description: as §3, §4, §5

- ELISA binding to full ectodomain (28-80) [1]: saturated binding
- ka [2]: 2.31e+06 M⁻¹ s⁻¹
- kd [2]: 0.00122 s⁻¹
- ELISA binding to C-terminally truncated ectodomain (28-68) [3]: impaired binding
- ELISA binding to N- and C-terminally truncated construct (34-68) [4]: impaired binding
- IC50 [5]: 0.001 to 0.15 nM
- IC50 [6]: 0.001 to 0.15 nM
- IC50 [7]: 0.001 to 0.15 nM
- IC50 (TWEAKR-Fc WT (TPP-599)): 0.001 to 0.15 nM
- IC50 [8]: 0.001 to 0.15 nM
- IC50 [9]: > 50 nM
- IC50 [10]: 0.001 to 0.15 nM
- IC50 [11]: 0.001 to 0.15 nM
B1: P3G5(TPP-2195): reference anti-TWEAKR antibody, murine IgG2a, from WO2009/140177; SEQ ID NO 121/122 (protein)
light: DIVLTQSPASLAVSLGQRATISCRANKSVSTSSYSYMHWYQQKPGQPPKLLIKYASNLESGVPARFSGSGSGTDFILNIHPVEEEDAATYYCQHSRELPFTFGSGTKLEIKRADAAPTVSIFPPSSEQLTSGGASVVCFLNNFYPKDINVKWKIDGSERQNGVLNSWTDQDSKDSTYSMSSTLTLTKDEYERHNSYTCEATHKTSTSPIVKSFNRNEC
heavy: QVQLQQSGPEVVRPGVSVKISCKGSGYTFTDYGIHWVKQSHAKSLEWIGVISTYNGYTNYNQKFKGKATMTVDKSSSTAYMELARLTSEDSAIYYCARAYYGNLYYAMDYWGQGTSVTVSSAKTTAPSVYPLAPVCGDTTGSSVTLGCLVKGYFPEPVTLTWNSGSLSSGVHTFPAVLQSDLYTLSSSVTVTSSTWPSQSITCNVAHPASSTKVDKKIEPRGPTIKPCPPCKCPAPNLLGGPSVFIFPPKIKDVLMISLSPIVTCVVVDVSEDDPDVQISWFVNNVEVHTAQTQTHREDYNSTLRVVSALPIQHQDWMSGKEFKCKVNNKDLPAPIERTISKPKGSVRAPQVYVLPPPEEEMTKKQVTLTCMVTDFMPEDIYVEWTNNGKTELNYKNTEPVLDSDGSYFMYSKLRVEKKNWVERNSYSCSVVHEGLHNHHTTKSFSRTPG
modifications: Mus Musculus
